{"source": "patent US20220031761A1", "about": "“COMPOSITIONS FOR PROMOTING SKIN REGENERATION, SKIN REJUVENATION, AND WOUND HEALING AND METHODS FOR PREPARATION AND USE THEREOF” (priority 2018, published 2022)", "origin": "cited, not measured here", "settings": "in vivo", "data": [{"substance": "HGF: growth factor secreted by mesenchymal cells, eluted by placental and umbilical tissue", "values": [{"measurement": "half-life of HGF", "value": "approximately 3 hours"}]}]}
